# Laboratory results from article PMC12626770 (Protein Science : A Publication of the Protein Society, 2025).
# B1: TB14.3A T78I (S4.4), yeast surface displayed (designed binder)
# chain: MEKRFYVLLIIVEDRKKAYRQVNELLHNFSEYILLRMGQDHRERYQSTIALVLKVDNDAIGALSGKLGQISGVKVMTIPEKRGSLE
# modifications: biotinylated
# Biological target: T1, Human transferrin receptor 1 (TfR), avi-tagged, biotinylated (human, UniProt P02786 101-760)
# T1 construct: also called biotinylated TfR
# Test: flow cytometry on cells; yeast surface display titration; varied TfR concentration, normalized MFU fitted non-linearly, averaged from three experiments; apparent Kd
# Settings: one partner purified
# T1 sequence (P02786 101-760): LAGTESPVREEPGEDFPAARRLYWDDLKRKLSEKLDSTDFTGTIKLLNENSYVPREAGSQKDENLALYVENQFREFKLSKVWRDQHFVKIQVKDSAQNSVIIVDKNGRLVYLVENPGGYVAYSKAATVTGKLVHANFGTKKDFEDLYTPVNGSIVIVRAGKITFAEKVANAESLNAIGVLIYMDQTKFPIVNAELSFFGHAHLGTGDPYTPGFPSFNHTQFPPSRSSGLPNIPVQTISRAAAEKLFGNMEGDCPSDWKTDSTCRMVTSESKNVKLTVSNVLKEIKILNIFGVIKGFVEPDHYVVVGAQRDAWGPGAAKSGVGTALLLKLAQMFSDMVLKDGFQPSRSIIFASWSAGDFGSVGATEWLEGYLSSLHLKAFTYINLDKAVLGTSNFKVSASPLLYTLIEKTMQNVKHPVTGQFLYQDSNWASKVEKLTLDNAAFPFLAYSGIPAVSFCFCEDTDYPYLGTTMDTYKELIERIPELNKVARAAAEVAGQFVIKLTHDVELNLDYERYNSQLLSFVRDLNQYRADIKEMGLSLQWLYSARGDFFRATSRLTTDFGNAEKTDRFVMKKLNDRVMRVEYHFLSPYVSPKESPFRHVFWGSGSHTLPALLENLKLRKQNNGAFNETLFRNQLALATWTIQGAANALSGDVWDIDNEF
binder,measurement,value
B1,Kd,305 ± 55 nM
